This is an account of results in article PMC2605612 (Experimental cell research, 2008).

Data set [1] deals with the molecule itself. As to the kind of experiment: cross-linking.
Data set [2] concerns the molecule itself. As to the kind of experiment: cross-linking. The source holds these as a separate data set.

Where two headings read alike, the source gives them in different places.

B1: Fis/OMP (other, UniProt Q9Y3D6 1-120, looked up)
chain: MEAVLNELVSVEDLLKFEKKFQSEKAAGSVSKSTQFEYAWCLVRSKYNDDIRKGIVLLEELLPKGSKEEQRDYVFYLAVGNYRLKEYEKALKYVRGLLQTEPQNNQAKELERLIDKAMKKPIFMVLVPVFALTMVAAWAFMRYRQQL
With B1, the “stoichiometry N” value in “cross-linking [1]” stood at 2.

B2: Myc-hFis1[32-152]Δα5 (domain or fragment, human, UniProt Q9Y3D6 32-152, looked up)
chain: KSTQFEYAWCLVRSKYNDDIRKGIVLLEELLPKGSKEEQRDYVFYLAVGNYRLKENQAKELERLIDKAMKKDGLVGMAIVGGMALGVAGLAGLIGLAVSKSKS
As to B2, the “fold decrease in dimer formation against Myc-hFis1[32-152]” value in “cross-linking [1]” is approximately 8 fold.

B3: Myc-hFis1[32-152] (domain or fragment, human, UniProt Q9Y3D6 32-152, looked up)
chain: KSTQFEYAWCLVRSKYNDDIRKGIVLLEELLPKGSKEEQRDYVFYLAVGNYRLKEYEKALKYVRGLLQTEPQNNQAKELERLIDKAMKKDGLVGMAIVGGMALGVAGLAGLIGLAVSKSKS
On to B3, for which the “stoichiometry N” value in the data set “cross-linking [2]” stood at 4; in “cross-linking [1]”, 5.

B4: Myc-hFis1[32-152]-Y87A (domain or fragment, human, UniProt Q9Y3D6 32-152, looked up)
chain: KSTQFEYAWCLVRSKYNDDIRKGIVLLEELLPKGSKEEQRDYVFYLAVGNYRLKEAEKALKYVRGLLQTEPQNNQAKELERLIDKAMKKDGLVGMAIVGGMALGVAGLAGLIGLAVSKSKS
Take B4: the “stoichiometry N” value in “cross-linking [1]” was found to be 2.

B5: Myc-hFis1[32-152]GGIDGG (domain or fragment, human, UniProt Q9Y3D6 32-152, looked up)
chain: KSTQFEYAWCLVRSKYNDDIRKGIVLLEELLPGGIDGGRDYVFYLAVGNYRLKEYEKALKYVRGLLQTEPQNNQAKELERLIDKAMKKDGLVGMAIVGGMALGVAGLAGLIGLAVSKSKS
On to B5, for which the “fold decrease in dimer formation against Myc-hFis1[32-152]” value in the data set “cross-linking [1]” is approximately 3 fold.

B6: Myc-hFis1[92-152] (domain or fragment, human, UniProt Q9Y3D6 92-152, looked up)
chain: KYVRGLLQTEPQNNQAKELERLIDKAMKKDGLVGMAIVGGMALGVAGLAGLIGLAVSKSKS
Consider B6, for which the “stoichiometry N” value in the data set “cross-linking [1]” came out at 2.
